In the supplement of paper PMC10126150:
± gives the standard deviation of the averaged measurements.

Tested on: ATP
Experiment: switch fluorescence ratio, 500 uM ATP over buffer (Cy3 cluster intensity, sum of 5 cycles each) (fold (ratio)); higher = stronger signal-on switching upon ATP binding; sequences stand for … in TCGTCGGCAGCGTCAGATGTGTATAAGAGACAGTTTTTTTTTTTTTTTTTTTTTTTTT…TC
Settings: aptamer strand: ATP DNA aptamer (quencher-CACCTGGGGGAGTATTGCGGAGGAAGG + anchor), 100 nM annealed; ATP concentration: 500 uM
Procedure, shortened: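 Cy3-labelled switching-strand clusters on a modified Illumina MiSeq flow-cell were annealed to 100 nM quencher-labelled ATP aptamer and imaged first in selection buffer, then after 15 min with 500 uM ATP at 22 °C. NaOH stripping and re-annealing separated each of five buffer/ATP cycles, and clusters outside 100-1000 RFU were excluded. The fluorescence ratio sums target-cycle Cy3 intensity over buffer-cycle Cy3 intensity per cluster and averages it per switch-domain sequence.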
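Note: ATP exposure 15 min at 22 °C before imaging.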

Sequence | switch fluorescence ratio
TTAGATTTTA | 0.961 ± 0.034
AGTCTAGGCG | 0.985 ± 0.011
TGCGAATTCT | 1.03 ± 0.011
CGGAAGTTAT | 1.01 ± 0.04
TCTGGATATT | 1.01 ± 0.025
GCTAGTGGC | 0.985 ± 0.079
GTTGGTTACA | 1.008 ± 0.0065
TGCAAGGGCG | 0.981 ± 0.021
GAGGTTCTAT | 1.0012 ± 0.00094
TGCTGTTTAC | 1.2 ± 0.28
TAATGGTTGC | 0.996 ± 0.014
GGTGGGGCGC | 1.01 ± 0.035
CACGTAGTAA | 1.13 ± 0.03
TATTTAGTTT | 1.01 ± 0.023
TAGAGGAAGG | 0.979 ± 0.021
CGGATGGGTG | 0.996 ± 0.021
AGTGGTTGTA | 0.997 ± 0.024
CCATGGGTGC | 1.34 ± 0.024
GCCTGCTAGC | 1.008 ± 0.007
CTTGGCCGCG | 0.987 ± 0.011
TATTAAGCGA | 1.05 ± 0.037
TACGACACCT | 1.73 ± 0.027
ATGTAGCATT | 1.21 ± 0.0026

Sequence | switch fluorescence ratio
GCTGCGGCAG | 1.012 ± 0.0046
AATAAGGTAT | 0.965 ± 0.014
TAAGGTCGAT | 1.01 ± 0.022
GAGGGCACTG | 0.956 ± 0.023
TACATAGGCA | 1.03 ± 0.035
GCATCTTGGG | 1 ± 0.029
CGCTGGTGGG | 1.01 ± 0.029
TATTAATGAT | 1.007 ± 0.01
GTGGTCGGGC | 1 ± 0.022
TGGATATTTG | 0.983 ± 0.065
GGCAGCCGGT | 1 ± 0.036
TTACTGATGG | 0.99 ± 0.033
CTATTCCGAG | 1.16 ± 0.066
GTGTAACGGG | 0.995 ± 0.027
TGTTCTAGGG | 1.01 ± 0.013
TGTACGGAGG | 1.04 ± 0.057
TCGGAGAAGG | 1.02 ± 0.064
AATTAAGGCC | 0.992 ± 0.026
AGTGGTGGGT | 1.01 ± 0.035
TCAATGGGGA | 0.998 ± 0.013
ATCGAAACCC | 1.05 ± 0.046
TTGGCTTTAT | 0.982 ± 0.04
AACCATCGGG | 0.976 ± 0.013

Sequence | switch fluorescence ratio
CGGGTTAATA | 0.989 ± 0.022
TATAAGCGGA | 0.993 ± 0.028
GCATAGCCTG | 0.98 ± 0.034
TCGTTGTGCT | 0.964 ± 0.027
GATGCGGTTT | 0.994 ± 0.019
ACGAGGGGGC | 1.24 ± 0.34
AGTATTTGTG | 0.97 ± 0.035
TCAATAGAAT | 1.06 ± 0.14
TTGTTCTTTT | 1.07 ± 0.077
AAAAGAAAGC | 0.956 ± 0.03
ATATGGGTTA | 0.9912 ± 0.001
CATAAATGTT | 1.02 ± 0.016
CCGGAACATG | 1.23 ± 0.058
GGAATACTTT | 1.01 ± 0.028
AACTATTCGG | 0.9788 ± 0.0054
TTTCGGCTAT | 1.12 ± 0.15
GATCCAATGT | 0.993 ± 0.019
CGTTTGCGAT | 0.989 ± 0.05
TTGGTCAAAT | 1.04 ± 0.022
TCGTAAAGTT | 0.955 ± 0.02
TGAAGTTAGT | 0.975 ± 0.03
GGGTGGGGAT | 1 ± 0.02
TTTTGTGGGA | 1.01 ± 0.031

Sequence | switch fluorescence ratio
GAACCGGGTT | 0.9987 ± 0.0079
TTATATTACT | 1.01 ± 0.027
GGGTAGGGTC | 1.01 ± 0.022
TCGAACTAGG | 1 ± 0.018
GACCAGGTTA | 1.181 ± 0.0052
ATGGGGCTTG | 1.05 ± 0.099
AAAAGGGTTA | 0.9976 ± 0.004
TTTTTGTTGT | 1.01 ± 0.052
TATGGTGCTT | 1.01 ± 0.032
GGGGGTGGCT | 1.027 ± 0.0069
ATGTCCGAAT | 1.02 ± 0.012
ATGGGGACTT | 0.979 ± 0.035
ACGTCGATGG | 0.995 ± 0.019
AGGCTGTGGG | 1.03 ± 0.015
ATCCGGTTAT | 1.03 ± 0.016
ATACGTTTGG | 1.01 ± 0.054
TGGCAGGGGT | 1.56 ± 0.63
CTGTAGTAGC | 2.38 ± 1.1
CCAGCACTTT | 1.008 ± 0.002
ATGAGGAGGG | 1.02 ± 0.023
CGGGAAATAG | 1.06 ± 0.02
CATCGGGTAG | 0.996 ± 0.02
CAACCGAGGC | 1.18 ± 0.028

Sequence | switch fluorescence ratio
CGGGTTCAGT | 0.974 ± 0.014
TGACGACGCC | 4.6 ± 0.054
AGGTTCGGAG | 1.04 ± 0.06
AGGTTGGAGC | 1 ± 0.021
GTTTCTTTCG | 1.01 ± 0.067
TTGAAAGTTC | 1 ± 0.077
AGGGATTAGC | 0.988 ± 0.015
GTGGGGGACA | 0.993 ± 0.04
TGAAAACACC | 1.13 ± 0.15
TGCGTTTGGG | 1.05 ± 0.064
GGTGCCACTT | 1.03 ± 0.024
TCGCGGCGCG | 0.972 ± 0.011
TGTTGGGTGT | 1.01 ± 0.031
TTTTTTAGC | 1.02 ± 0.03
GGTTTCTTAG | 0.98 ± 0.018
TCAAGGCACC | 1.1 ± 0.023
CTAGGGTGGA | 1.05 ± 0.023
TAGAAATTAT | 1.19 ± 0.38
GGGGGGGAG | 1.02 ± 0.021
TAAGAGCTGA | 0.985 ± 0.023
TCGGGGAGTT | 0.982 ± 0.021
AAACAGTTGG | 0.9936 ± 0.0097
GGGGTTCGGC | 1.058 ± 0.0023

Sequence | switch fluorescence ratio
TGGGGAACTT | 1.03 ± 0.041
CTGGGGACCT | 1.1 ± 0.066
TTTTGGCAGG | 1.03 ± 0.037
GATGATGTAT | 1.01 ± 0.033
GGGGTTCGCG | 1.004 ± 0.0048
CGTTTGCAGT | 1.02 ± 0.017
CGGTTCGGTG | 0.981 ± 0.014
TTTATTAAGT | 1.01 ± 0.033
CGCGTGGCTG | 1 ± 0.019
TTGGGGATTT | 0.997 ± 0.029
TTTAACATCA | 0.984 ± 0.047
AGATTCAATA | 0.991 ± 0.016
AACATGGGTT | 1.01 ± 0.031
GACGTTTGGG | 0.982 ± 0.022
GATAGGGCAA | 1.08 ± 0.075
TTAATAAGAC | 1.04 ± 0.054
TCAGTAATAA | 1.345 ± 0.013
TCTTGTTTGG | 0.994 ± 0.049
ACCTTTTAGT | 1.04 ± 0.018
GTGGAGGGTA | 1.01 ± 0.029
TGTTTTTACC | 1.03 ± 0.059
GGGGGCGACT | 0.978 ± 0.021
AAAGGGTAGT | 0.9813 ± 0.0014

Sequence | switch fluorescence ratio
TTATTCGGCG | 1 ± 0.032
CTAACTCGC | 1.04 ± 0.011
TTAAAGGTTA | 0.989 ± 0.013
AGGGGAGGAG | 0.974 ± 0.017
CATCGTAATT | 1.07 ± 0.042
TAAGAGGCAC | 0.996 ± 0.052
TGGGTTGTGT | 0.988 ± 0.028
GGGGAGTGCA | 1 ± 0.035
TAATAGGTTG | 0.97 ± 0.012
TCCGAGATCT | 1.08 ± 0.053
CGCATAGCTT | 1.12 ± 0.021
ACCGGAGAGC | 1.1 ± 0.18
TGGGGCACGG | 1.09 ± 0.19
GAAGTGTTGG | 1.004 ± 0.0049
ACAAGAGGGT | 1.002 ± 0.0051
GGTTAGAACG | 1.02 ± 0.06
CTTATAGCGC | 1.007 ± 0.0066
AAATATTGGT | 1.01 ± 0.03
TGTGATTGGC | 1.03 ± 0.041
